Key:
hMMP7 42-50 = biological target: T1, hMMP7 42-50 (Homo sapiens, UniProt P09237); assay: Hydrolysis activity against hMMP7 42-50 (HPLC, MS); type: biochemical
T1 construct: host or cells: synthetic peptide
Method: (§1) The present example examined whether a synthetic peptide JAL has hydrolysis activity against synthetic peptides derived from the prodomain of human matrix metalloprotease 7 (hMMP7).
(§2) The following JAL was used as a hydrolytic peptide, and hMMP7 42-50 or hMMP7 26-50 was used as a substrate.
(§3) First, to a buffer solution (Tris-HCl, pH 6.5, final concentration: 100 mmol/l), JAL (final concentration: 0.2 mmol/l) and the fragment peptide of hMMP7 (final concentration 0.05 mmol/l) were added. […] Thereafter, the reaction solution was subjected to HPLC, and the peaks of JAL and the fragment peptide of hMMP7 were examined. HPLC was performed under the following conditions.
(§4) Then, in HPLC, aliquots of the peaks were collected (each 20 μl), and fragment identification was performed by mass spectrometry (ABI QSTAR Elite system) (referred to as “MS” hereinafter). MS was performed by a flow injection method under the following conditions.

hMMP7 26-50 = biological target: T2, hMMP7 26-50 (Homo sapiens, UniProt P09237); assay: Hydrolysis activity against hMMP7 26-50 (HPLC, MS); type: biochemical
T2 construct: host or cells: synthetic peptide
T2 sequence (P09237 26-50 limits assumed): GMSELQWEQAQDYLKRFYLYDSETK
Method: as §1, §2, §3, §4

hMMP7 1-42 = biological target: T3, hMMP7 1-42 (Homo sapiens, UniProt P09237); assay: Hydrolysis activity against hMMP7 1-42, optimal pH; type: biochemical; details: 5 days
T3 sequence (P09237 18-42): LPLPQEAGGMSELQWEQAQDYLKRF
Source text: The pH of the reaction solution was adjusted using an acetate buffer solution in the pH range from 3.5 to 6.0 and using a Tris-HCl buffer solution in the pH range from 6.5 to 8.0. In either case, the final concentration was set to 150 mmol/l.

[1] = Autodigestion of the catalytic peptide (HPLC, MS); type: biochemical
Method: as §3
Next, the mechanism of autodigestion was examined using various mutants of JAL as hydrolytic peptides. To a reaction solution containing each of the mutants of JAL, a protease inhibitor (trade name: Roche cOmplete, Roche) was added to cause a reaction. One tablet of the protease inhibitor was dissolved in 1 ml of Milli-Q water, and then, 50 μl of the resultant mixture was added to the reaction solution. […] As a result, the autodigestion of all the peptides subjected to the measurement was inhibited (FIG. 16).
Autodigestion in Box B was examined.
JAL-TA9 was reacted in the same manner except that a substrate was not added to examine the autodigestion of JAL-TA9.
The influence of an inhibitor on autodigestion of JAL-TA9 was examined. […] As the protease inhibitor, the serine protease inhibitor AEBSF, which inhibited the autodigestion of JAL 12-22 C19M in the item (6) in Example 4, was used.

SOD1 2-38 = SOD1 2-38 (Homo sapiens, UniProt P00441); assay: Hydrolysis activity against SOD1 2-38; type: biochemical
SOD1 2-38, sequence (P00441 2-38 limits assumed): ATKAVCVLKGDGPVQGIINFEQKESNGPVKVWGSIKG
Method: As a control, physiological saline (0.9 w/v %) was used instead of the buffer solution. […] Also, it is considered that physiological saline is suitable for storage of JAL before use, for example.
Next, an experiment was conducted to consider an optimal pH for activity using JAL as the hydrolytic peptide and SOD1 2-38 as a substrate.
Metal ions to be added to a reaction solution were Zn^2+, Ca^2+, Co^2+, or combinations thereof. The concentrations of the metal ions in the respective reaction solutions were as follows: 10 mmol/l for Ca^2+; and 5 μmol/l for the other metal ions.
(§5) In JAL 1-22 C19M and JAL 7-22 C19M, Cys residues contained in JAL form S—S bonds during a reaction, and this makes fragment analysis difficult. On this account, JAL 1-22 and JAL 7-22 were modified so as to substitute Cys residues by Met.

SOD1 12-38 = SOD1 12-38 (Homo sapiens, UniProt P00441); assay: Hydrolysis activity against SOD1 12-38; type: biochemical; details: pH 6.5 or 7.5, 3 or 4 days
SOD1 12-38, sequence (P00441 12-38 limits assumed): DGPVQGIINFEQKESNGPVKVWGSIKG

SOD1 53-70 = SOD1 53-70 (Homo sapiens, UniProt P00441); assay: Hydrolysis activity against SOD1 53-70; type: biochemical; details: pH 6.5 or 7.5, 3 or 4 days
SOD1 115-154 = SOD1 115-154 (Homo sapiens, UniProt P00441); assay: Hydrolysis activity against SOD1 115-154; type: biochemical; details: pH 6.5 or 7.5, 3 or 4 days
SOD1 115-154, sequence (P00441 115-154): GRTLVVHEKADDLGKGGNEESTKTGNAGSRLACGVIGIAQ

SOD1 2-12 = SOD1 2-12 (Homo sapiens, UniProt P00441); assay: Hydrolysis activity against SOD1 2-12; type: biochemical
Source text: as §5

Aβ1-20 = Aβ1-20 (Homo sapiens, UniProt P05067); assay: Hydrolysis activity against Aβ1-20
Aβ1-20, sequence (P05067 672-691 limits assumed): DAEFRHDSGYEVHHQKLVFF
Method: Further, any change in activity caused by addition of human serum albumin (HSA, Wako Pure Chemical Industries, Ltd., final concentration 0.025%) also was measured.
As substrates, Aβ42 in the form of soluble powder (authentic sample, Peptide Institute Inc.) and fragment peptides thereof, namely, Aβ1-20, Aβ11-29, and soluble Aβ28-42, were used. […] In the case of MS analysis, the MS analysis was performed after applying 20 μl of the reaction solution to HPLC and collecting an aliquot of the peak.
The present experiment examined activity against Aβ-Fs in Example 7.
As substrates, the same Aβ1-20 and Aβ11-29 as used in Example 7 were used.

[2] = biological target: T4, human serum albumin (HSA) (Homo sapiens, UniProt P02768); assay: Cleavage of HSA as substrate; type: biochemical; details: HSA 0.025%
T4 construct: purchased Wako Pure Chemical Industries, Ltd
Method: (§6) On the other hand, by adding either HSA or BSA to the reaction solution, autodigestion of JAL 7-22 C 19M was […]. […] Since serum albumin is present in the body, it is considered that the hydrolytic peptide is suitable for use in the body. In experiments to be described below, the hydrolysis activity of JAL was measured in a reaction solution containing HSA.

[3] = biological target: T5, bovine serum albumin (BSA) (Bos taurus, UniProt P02769); assay: Cleavage of BSA as substrate; type: biochemical; details: BSA 0.025%
T5 construct: purchased Wako Pure Chemical Industries, Ltd
T5 sequence (P02769 25-607): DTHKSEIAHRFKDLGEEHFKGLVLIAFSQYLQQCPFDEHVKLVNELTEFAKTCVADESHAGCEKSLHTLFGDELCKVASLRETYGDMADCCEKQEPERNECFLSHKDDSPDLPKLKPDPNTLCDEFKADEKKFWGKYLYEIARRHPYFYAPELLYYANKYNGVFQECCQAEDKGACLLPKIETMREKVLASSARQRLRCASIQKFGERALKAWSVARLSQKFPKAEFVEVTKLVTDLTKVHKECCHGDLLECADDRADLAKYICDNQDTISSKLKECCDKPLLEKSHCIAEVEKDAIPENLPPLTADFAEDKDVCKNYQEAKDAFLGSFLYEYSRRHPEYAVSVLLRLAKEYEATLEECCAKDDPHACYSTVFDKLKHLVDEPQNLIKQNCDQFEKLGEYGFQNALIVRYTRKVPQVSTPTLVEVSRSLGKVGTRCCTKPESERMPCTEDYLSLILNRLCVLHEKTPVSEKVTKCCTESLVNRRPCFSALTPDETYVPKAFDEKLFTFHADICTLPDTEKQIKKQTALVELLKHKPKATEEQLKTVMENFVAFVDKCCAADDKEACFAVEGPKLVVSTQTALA
Method: as §6

[4] = JAL 0.2 mmol/l, substrate 0.05 mmol/l, Tris-HCl pH 6.5, 37° C., 14 days, HPLC
[5] = Example 3 (1), substrate SOD1 2-38 or SOD1 2-12

## KYEGHWYPEKPYKGSGFRCIHI [JAL]
hMMP7 42-50; 16 days
  cleavage of substrate, fragment identification by MS: cleaved at a plurality of sites
hMMP7 42-50; [4]
  hydrolysis activity against hMMP7 42-50: has activity
hMMP7 26-50; 16 days
  cleavage of substrate, fragment identification by MS: cleaved at a plurality of sites
hMMP7 26-50; [4]
  hydrolysis activity against hMMP7 26-50: has activity
hMMP7 1-42; pH 3.5 to 6.0, acetate buffer 150 mmol/l
  hydrolysis activity against hMMP7 1-42: exhibited activity
hMMP7 1-42; pH 6.5 to 8.0, Tris-HCl 150 mmol/l
  hydrolysis activity against hMMP7 1-42: the results obtained were the same as that obtained after a lapse of 0 days from the start of the reaction
[1]; Tris-HCl pH 6.5, 37° C., 14 days, with hMMP7 fragment
  autodigestion: autodigestion of JAL occurred
SOD1 2-38
  cleavage sites, fragment identification by MS: a plurality of sites indicated with arrows were cleaved
SOD1 2-38; Tris buffer solution at various concentrations, 1 or 4 days
  hydrolysis activity against SOD1 2-38: exhibited activity regardless of the concentration of the Tris buffer solution
SOD1 2-38; assay buffer solution (50 mmol/l Tris-HCl pH 7.5, NaCl, Ca, Zn, Briji35, NaN3) vs Tris buffer pH 6.5, 0, 1, 3 days
  hydrolysis activity against SOD1 2-38: cleavage by JAL was observed earlier
SOD1 2-38; only Milli-Q water (0 mmol/l Tris)
  hydrolysis activity against SOD1 2-38: did not exhibit activity
SOD1 2-38; pH 6.5 or 7.5, 3 or 4 days
  hydrolysis activity against SOD1 2-38: strong activity
SOD1 2-38; pH 6.5 to 8.0 in increments of 0.5, 1 day
  hydrolysis activity against SOD1 2-38: exhibited activity at all the pH values
SOD1 2-38; physiological saline (0.9 w/v %) instead of buffer
  hydrolysis activity against SOD1 2-38: did not exhibit activity
SOD1 2-38; with or without Zn2+, Ca2+, Co2+, 1 day
  hydrolysis activity against SOD1 2-38: exhibited activity regardless of the presence or absence of the metals
SOD1 12-38
  hydrolysis activity against SOD1 12-38: has activity
SOD1 53-70
  hydrolysis activity against SOD1 53-70: strong activity
SOD1 115-154
  hydrolysis activity against SOD1 115-154: did not exhibit activity
SOD1 2-12
  cleavage sites, fragment identification by MS: a plurality of sites indicated with arrows were cleaved
SOD1 2-12; pH 6.5 or 7.5, 3 or 4 days
  hydrolysis activity against SOD1 2-12: has activity
Aβ1-20; Example 3 (2), (6)
  hydrolysis activity against Aβ1-20: has activity
Aβ1-20; PBS (pH 7.4), 3 or 5 days
  hydrolysis activity against Aβ1-20: exhibited activity
Aβ1-20; phosphate buffer solution, 3 or 5 days
  hydrolysis activity against Aβ1-20: did not exhibit activity

## YPEKPYKGSGFRMIHI [JAL 7-22 C19M]
[1]; HSA added, Roche cOmplete or AEBSF
  autodigestion in presence of protease inhibitor: fragments generated by autodigestion disappeared
[1]; HSA or BSA (0.025%) added
  autodigestion, effect of albumin: enhanced
SOD1 2-38; [5]
  hydrolysis activity of JAL mutants: exhibited hydrolysis activity
SOD1 2-12; [5]
  hydrolysis activity of JAL mutants: exhibited hydrolysis activity
[2]
  cleavage of albumin as substrate: cleavage by JAL was not observed
[3]
  cleavage of albumin as substrate: cleavage by JAL was not observed
Aβ1-20; Example 3 (2), (6)
  hydrolysis activity against Aβ1-20: exhibited activity

Reference: patent publication US10995119B2, “Peptide exhibiting hydrolytic activity and use thereof” (Okinawa Institute of Science and Technology School …, priority 2016, dated 2021)
